Measured values: doi:10.1101/2024.04.05.588253v1

B1: ssnBVMO (Tepidiforma thermophila) (protein)
chain: MTSNAPQSFDSIIVGAGFAGLYQLIRLRRAGFSARVIEAGDNVGGTWYWNRYPGARCDIESLQYQYAFDPGLAKEWRWTERYATQPEILRYIEFVADRYDLRRDIQFSTRVTAAHYDEAAARWTVHTDRGDLYSCRYLVMATGCLSVPKTPEVPGIETFEGESYHTGAWPHEGVDFTGKRVAVIGTGSSAIQSIPIIARQAAHLTVFQRTPNFSVPAHNYFLDEEQWRAAAERIAELRAEARTTSAGITGLPLNDVSALAVSEEERRREYERRWAMGGFAIGGAFNDIAINPDANETAAEFVRQKIREIVQDPETAEALCPRDYPFGTKRLCVDIAYYETFNRPNVKLVSIRDNPIAAITPKGVRLENGDEYEFDAIVYATGFDAMTGALLRIDIRGRDGLTLREKWEHGPRTYLGIQVAGFPNMFTITGPGSPSVLSNMIVSIEQHVDWVTDCLEYLRERDLATIEASPAAEDAWVNHVNEVANLTLYPRANSWYIGANVPGKPRVFMPYVGGVGAYAQKCAEVAANGYEGFILQPEPAALSR
B2: PTDH-L1-ssnBVMO (Tepidiforma thermophila) (protein)
chain: B1 chain

Key:
Assay in all cases: purified protein
Conditions in all cases: 0.1 mM NADPH, 100 mM Tris pH 7.5, 50 °C, 2% p-dioxane
[1] = substrate: CCCCCCC(C)=O
[2] = substrate: CC(=O)CCc1ccccc1
[3] = substrate: CC(=O)c1ccccc1
[4] = substrate: CCCCCC(C)=O
[5] = substrate: CCC(=O)c1ccccc1
[6] = substrate: CC(=O)c1cccc(O)c1; format: biochemical, Tepidiforma thermophila
[7] = substrate: CC(=O)c1ccc(O)cc1; format: biochemical, Tepidiforma thermophila

Row | Protein | Km [1] [µM] | kcat [1] [s⁻¹] | Km [2] [µM] | kcat [2] [s⁻¹] | Km [3] [µM] | kcat [3] [s⁻¹] | Km [4] [µM] | kcat [4] [s⁻¹] | Km [5] [µM] | kcat [5] [s⁻¹] | Km [6] [µM] | kcat [6] [s⁻¹] | Km [7] [µM] | kcat [7] [s⁻¹]
1 | B1 | 20.1 ± 9.6 | 0.671 ± 0.076 | 22 ± 12 | 0.76 ± 0.10 | 2520 ± 610 | 0.335 ± 0.018 | 3.7 ± 1.5 | 0.455 ± 0.038 | 373 ± 39 | 0.152 ± 0.003 | 2500 ± 2000 | 0.127 ± 0.038 | 1280 ± 180 | 0.455 ± 0.026
2 | B2 | 25.7 ± 2.5 | 0.536 ± 0.078 | – | – | 3600 ± 790 | 0.459 ± 0.081 | 6.3 ± 3.1 | 0.61 ± 0.11 | 700 ± 140 | 0.371 ± 0.057 | 1590 ± 270 | 0.120 ± 0.023 | 760 ± 120 | 0.301 ± 0.061
